Measurements from patent publication US20030049732A1 (Human Genome Sciences, published 2003).
Substitutions are numbered along the chain they refer to. Numbers in names are those of the source.

T1: Apaf-1 (UniProt O14727-3 1-1194, limits assumed)
T1 sequence (looked up): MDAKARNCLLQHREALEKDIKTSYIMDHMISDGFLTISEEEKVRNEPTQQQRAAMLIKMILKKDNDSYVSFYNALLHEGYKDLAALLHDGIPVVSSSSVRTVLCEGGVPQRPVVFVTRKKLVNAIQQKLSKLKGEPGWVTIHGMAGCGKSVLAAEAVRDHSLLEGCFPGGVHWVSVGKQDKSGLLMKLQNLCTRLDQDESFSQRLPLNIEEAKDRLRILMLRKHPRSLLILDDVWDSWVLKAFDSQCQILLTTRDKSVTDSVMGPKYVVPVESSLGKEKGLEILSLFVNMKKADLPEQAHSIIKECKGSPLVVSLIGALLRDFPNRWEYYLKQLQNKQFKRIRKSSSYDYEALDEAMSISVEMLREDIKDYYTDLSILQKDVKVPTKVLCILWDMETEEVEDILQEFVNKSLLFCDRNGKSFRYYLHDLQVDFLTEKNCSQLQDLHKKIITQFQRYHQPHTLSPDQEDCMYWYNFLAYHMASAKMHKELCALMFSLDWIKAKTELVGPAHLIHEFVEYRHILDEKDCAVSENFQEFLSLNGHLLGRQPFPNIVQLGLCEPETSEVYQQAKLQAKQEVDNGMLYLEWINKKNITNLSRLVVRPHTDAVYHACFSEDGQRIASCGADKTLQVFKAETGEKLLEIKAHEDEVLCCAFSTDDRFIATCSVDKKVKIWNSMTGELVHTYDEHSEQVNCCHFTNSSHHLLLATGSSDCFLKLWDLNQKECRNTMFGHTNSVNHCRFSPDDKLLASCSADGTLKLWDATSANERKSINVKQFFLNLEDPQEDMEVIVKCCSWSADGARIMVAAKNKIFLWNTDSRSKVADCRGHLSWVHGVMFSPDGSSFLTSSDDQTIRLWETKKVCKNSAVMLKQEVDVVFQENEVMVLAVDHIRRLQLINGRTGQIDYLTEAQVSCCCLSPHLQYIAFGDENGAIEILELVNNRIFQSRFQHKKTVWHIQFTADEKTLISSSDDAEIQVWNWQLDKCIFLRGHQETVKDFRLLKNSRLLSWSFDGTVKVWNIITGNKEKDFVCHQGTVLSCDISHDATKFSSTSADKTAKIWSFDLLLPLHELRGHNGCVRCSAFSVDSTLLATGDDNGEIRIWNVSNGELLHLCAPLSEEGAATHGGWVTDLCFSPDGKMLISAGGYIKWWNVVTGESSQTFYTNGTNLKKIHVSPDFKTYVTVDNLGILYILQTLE

T2: Nod1 V41Q (human, UniProt Q9Y239 1-953)
T2 construct: also called V41 Q point mutant in the CARD
T2 sequence: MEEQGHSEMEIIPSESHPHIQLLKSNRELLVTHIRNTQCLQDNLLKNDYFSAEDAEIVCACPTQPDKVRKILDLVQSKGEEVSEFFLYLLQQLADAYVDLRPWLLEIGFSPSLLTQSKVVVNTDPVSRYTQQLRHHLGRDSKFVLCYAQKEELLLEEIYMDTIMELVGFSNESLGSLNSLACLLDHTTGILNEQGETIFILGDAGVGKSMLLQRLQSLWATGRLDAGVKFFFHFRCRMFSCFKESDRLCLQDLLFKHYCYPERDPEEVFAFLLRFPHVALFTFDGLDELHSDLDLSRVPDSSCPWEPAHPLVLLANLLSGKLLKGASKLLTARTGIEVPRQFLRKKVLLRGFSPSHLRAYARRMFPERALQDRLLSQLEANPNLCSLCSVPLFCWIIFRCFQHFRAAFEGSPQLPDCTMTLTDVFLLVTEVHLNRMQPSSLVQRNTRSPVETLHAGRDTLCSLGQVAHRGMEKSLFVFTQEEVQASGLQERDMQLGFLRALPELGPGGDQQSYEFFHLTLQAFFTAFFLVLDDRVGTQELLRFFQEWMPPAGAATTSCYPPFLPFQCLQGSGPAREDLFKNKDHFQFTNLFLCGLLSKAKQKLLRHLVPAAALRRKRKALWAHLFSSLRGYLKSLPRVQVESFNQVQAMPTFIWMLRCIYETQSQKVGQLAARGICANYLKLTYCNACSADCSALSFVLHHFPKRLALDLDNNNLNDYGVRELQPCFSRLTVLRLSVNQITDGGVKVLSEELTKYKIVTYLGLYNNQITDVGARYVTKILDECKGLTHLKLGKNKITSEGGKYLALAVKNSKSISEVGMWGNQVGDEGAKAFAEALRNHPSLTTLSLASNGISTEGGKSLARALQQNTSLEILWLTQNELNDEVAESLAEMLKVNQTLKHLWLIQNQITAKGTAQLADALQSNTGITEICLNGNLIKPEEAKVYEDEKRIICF

T3: Nod1 mutant, residues 126-953 (human, UniProt Q9Y239 126-953)
T3 construct: also called mutant lacking the CARD
T3 sequence: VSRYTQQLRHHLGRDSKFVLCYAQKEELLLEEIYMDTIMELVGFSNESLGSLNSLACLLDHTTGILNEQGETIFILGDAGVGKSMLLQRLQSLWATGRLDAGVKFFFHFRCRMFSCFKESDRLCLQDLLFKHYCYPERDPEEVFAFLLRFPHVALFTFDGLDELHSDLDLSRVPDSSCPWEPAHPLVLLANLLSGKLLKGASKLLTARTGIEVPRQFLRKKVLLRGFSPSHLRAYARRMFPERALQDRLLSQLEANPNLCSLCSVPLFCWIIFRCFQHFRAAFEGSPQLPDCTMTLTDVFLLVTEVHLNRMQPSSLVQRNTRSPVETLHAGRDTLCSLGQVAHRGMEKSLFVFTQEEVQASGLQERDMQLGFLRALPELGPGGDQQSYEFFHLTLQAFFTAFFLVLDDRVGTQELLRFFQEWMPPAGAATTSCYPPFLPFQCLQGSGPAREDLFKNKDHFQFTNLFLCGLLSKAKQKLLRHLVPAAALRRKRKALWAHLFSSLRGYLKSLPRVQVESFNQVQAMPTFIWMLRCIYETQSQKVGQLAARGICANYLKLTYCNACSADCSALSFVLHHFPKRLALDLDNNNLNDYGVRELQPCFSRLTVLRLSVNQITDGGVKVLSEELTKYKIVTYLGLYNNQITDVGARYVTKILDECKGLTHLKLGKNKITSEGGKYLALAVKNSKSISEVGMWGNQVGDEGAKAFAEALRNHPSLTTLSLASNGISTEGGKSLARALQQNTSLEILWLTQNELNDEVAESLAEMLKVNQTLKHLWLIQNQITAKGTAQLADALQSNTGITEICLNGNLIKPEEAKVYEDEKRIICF

B1: Nod1 (other)
chain: T2 sequence with Q41V
notes: also called wild-type Nod1; WT Nod1
B2: Caspase-9 C287S (enzyme, UniProt P55211 1-416, looked up)
chain: MDEADRRLLRRCRLRLVEELQVDQLWDALLSRELFRPHMIEDIQRAGSGSRRDQARQLIIDLETRGSQALPLFISCLEDTGQDMLASFLRTNRQAAKLSKPTLENLTPVVLRPEIRKPEVLRPETPRPVDIGSGGFGDVGALESLRGNADLAYILSMEPCGHCLIINNVNFCRESGLRTRTGSNIDCEKLRRRFSSLHFMVEVKGDLTAKKMVLALLELAQQDHGALDCCVVVILSHGCQASHLQFPGAVYGTDGCPVSVEKIVNIFNGTSCPSLGGKPKLFFIQASGGEQKDHGFEVASTSPEDESPGSNPEPDATPFQEGLRTFDQLDAISSLPTPSDIFVSYSTFPGFVSWRDPKSGSWYVETLDDIFEQWAHSEDLQSLLLRVANAVSVKGIYKQMPGCFNFLRKKLFFKTS
notes: Named only once, in the sentence on Nod1 V41Q
B3: Caspase-9 (enzyme, UniProt P55211 1-416, looked up)
chain: B2 chain with S287C
notes: also called procaspase-9; procaspas-9
B4: Nod1 mutant, residues 649-953 (other)
chain: MPTFIWMLRCIYETQSQKVGQLAARGICANYLKLTYCNACSADCSALSFVLHHFPKRLALDLDNNNLNDYGVRELQPCFSRLTVLRLSVNQITDGGVKVLSEELTKYKIVTYLGLYNNQITDVGARYVTKILDECKGLTHLKLGKNKITSEGGKYLALAVKNSKSISEVGMWGNQVGDEGAKAFAEALRNHPSLTTLSLASNGISTEGGKSLARALQQNTSLEILWLTQNELNDEVAESLAEMLKVNQTLKHLWLIQNQITAKGTAQLADALQSNTGITEICLNGNLIKPEEAKVYEDEKRIICF
notes: also called the LRRs of Nod1; mutant containing the LRRs

Columns and labels:
Apaf-1 = biological target: T1, Apaf-1; assay: co-immunoprecipitation, tagged proteins transiently expressed in 293T cells
Excerpt: The CARD and its structurally related death effector domain (DED) are peptide motifs that mediate interactions between apoptosis-regulatory proteins (Science 281:1301 (1998); Hofmann et al., Trends Biochem. Sci. 22:155 (1998)).

Nod1 V41Q = biological target: T2, Nod1 V41Q; assay: co-immunoprecipitation from co-transfected 293T cells, immunoblot
Excerpt: (§1) Both Ced-4 and Apaf-1 associate with their target caspases via their corresponding CARDs (Zou et al., Cell, 90:405 (1997); Hu et al., Proc. Natl. Acad. Sci. USA, 95:4386 (1998); ); Chinnaiyan et al., Nature, 388:728 (1997); Hu et al., Proc. Natl. Acad. Sci. USA, 95:4386 (1998); Srinivasula et al., Mol. Cell, 1:946 (1998); Chaudhary et al., J. Biol. Chem., 273:17708 (1998); Yang et al., Science, 281:1355 (1998)).

[1] = biological target: T3, Nod1 mutant, residues 126-953; assay: as above
Excerpt: as §1

RICK = biological target: T4, RICK (UniProt O43353 1-540); assay: co-transfection of WT or mutant Nod1 and RICK in 293T cells
T4 construct: also called serine-threonine kinase with a CARD
T4 sequence (O43353 whole entry): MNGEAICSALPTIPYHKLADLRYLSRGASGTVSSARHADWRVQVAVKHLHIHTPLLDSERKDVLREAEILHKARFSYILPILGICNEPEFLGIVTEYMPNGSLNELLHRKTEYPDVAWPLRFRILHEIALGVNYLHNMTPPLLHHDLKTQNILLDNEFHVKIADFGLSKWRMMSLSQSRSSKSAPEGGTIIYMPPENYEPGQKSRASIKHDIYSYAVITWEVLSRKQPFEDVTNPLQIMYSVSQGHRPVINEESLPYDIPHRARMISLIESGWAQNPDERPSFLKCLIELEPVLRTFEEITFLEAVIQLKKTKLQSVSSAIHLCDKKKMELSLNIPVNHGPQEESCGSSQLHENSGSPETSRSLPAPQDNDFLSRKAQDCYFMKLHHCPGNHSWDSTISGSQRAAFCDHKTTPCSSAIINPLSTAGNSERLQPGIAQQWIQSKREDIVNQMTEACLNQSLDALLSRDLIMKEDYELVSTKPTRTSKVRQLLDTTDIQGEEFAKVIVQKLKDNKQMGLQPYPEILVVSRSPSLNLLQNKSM

Caspase-9 = biological target: B3; assay: co-immunoprecipitation from co-transfected 293T cells, immunoblot
Excerpt: as §1

B1: no binding (Apaf-1).

B2: no binding (Nod1 V41Q).

B3: no binding [1].

B4: no binding (RICK); no binding (Caspase-9).
